Laboratory results: article PMC9180478

Columns and labels:
Myc-PCNA = Myc-PCNA (UniProt P12004); experiment: FLAG-immunoprecipitation, immunoblot; conditions: transient co-expression with Myc-PCNA; parent: 1.00
Myc-PCNA (C81R) = Myc-PCNA (C81R) (UniProt P12004); experiment: FLAG-immunoprecipitation, immunoblot; conditions: transient co-expression with Myc-PCNA (C81R); parent: 1.00

ratio to parent (Myc-PCNA)	ratio to parent (Myc-PCNA (C81R))	Substance
0.91	–	FLAG-ATAD5 (812–1844) (from UniProt Q96QE3) 815SSQD818 to GGAA
1.35	0.91	FLAG-ATAD5 (812–1844) (from UniProt Q96QE3) 815SSQD818 to GGAA; S824A; Q825A; D826A
